Data from US20260014232A1, “Pharmaceutical Composition of GLP-1 and GIP Receptor Dual Agonist and Use Thereof” (Jiangsu Hengrui Pharmaceuticals Co., Ltd., priority 2021, published 2026).
Starred links: 1 amine or outer side, 2 acyl side, 3 side chain; linkers in the order of their positions; H or OH if unused. Non-standard residues stand in square brackets, D forms with d. Groups on a side chain read outwards from the residue. No end group written: not given here. *: point of attachment. Arachidoyl = CCCCCCCCCCCCCCCCCCCC(=O)*; γGlu = O=C(O)[C@H](CCC(=O)[*:2])N[*:1]; AEEA = NCCOCCOCC(=O)O; Aib = CC(C)(N)C(=O)O

Tests used:
[1] = target: human glucagon-like peptide-1 receptor (GLP-1R) (human, UniProt P43220 24-463); assay: cell-based or functional assay
[2] = target: T1, human glucose-dependent insulinotropic polypeptide receptor (GIPR) (human, UniProt P48546 22-466); assay: cell-based or functional assay
T1 sequence (looked up): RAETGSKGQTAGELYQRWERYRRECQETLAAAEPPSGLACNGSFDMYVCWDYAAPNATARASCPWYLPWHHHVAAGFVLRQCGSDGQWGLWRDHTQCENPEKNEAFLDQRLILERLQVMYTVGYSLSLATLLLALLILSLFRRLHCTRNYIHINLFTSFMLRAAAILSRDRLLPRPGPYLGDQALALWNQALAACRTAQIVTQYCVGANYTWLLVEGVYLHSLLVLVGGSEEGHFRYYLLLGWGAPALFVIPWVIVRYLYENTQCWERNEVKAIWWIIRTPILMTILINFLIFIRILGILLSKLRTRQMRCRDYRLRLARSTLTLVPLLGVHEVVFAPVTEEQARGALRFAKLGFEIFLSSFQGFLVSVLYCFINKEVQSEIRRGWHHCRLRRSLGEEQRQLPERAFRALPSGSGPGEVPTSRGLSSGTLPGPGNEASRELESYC

B1: compound 15# (peptide)
peptide: Y[Aib]EGTFTSDYSIYK([AEEA-AEEA-γGlu-Arachidoyl])ERIAAQEFINWLIAGGPSSGAPPPS-NH2
modifications: N-terminus assumed
SMILES: CCCCCCCCCCCCCCCCCCCC(=O)N[C@@H](CCC(=O)NCCOCCOCC(=O)NCCOCCOCC(=O)NCCCC[C@H](NC(=O)[C@H](Cc1ccc(O)cc1)NC(=O)[C@@H](NC(=O)[C@H](CO)NC(=O)[C@H](Cc1ccc(O)cc1)NC(=O)[C@H](CC(=O)O)NC(=O)[C@H](CO)NC(=O)[C@@H](NC(=O)[C@H](Cc1ccccc1)NC(=O)[C@@H](NC(=O)CNC(=O)[C@H](CCC(=O)O)NC(=O)C(C)(C)NC(=O)[C@@H](N)Cc1ccc(O)cc1)[C@@H](C)O)[C@@H](C)O)[C@@H](C)CC)C(=O)N[C@@H](CCC(=O)O)C(=O)N[C@@H](CCCNC(=N)N)C(=O)N[C@H](C(=O)N[C@@H](C)C(=O)N[C@@H](C)C(=O)N[C@@H](CCC(N)=O)C(=O)N[C@@H](CCC(=O)O)C(=O)N[C@@H](Cc1ccccc1)C(=O)N[C@H](C(=O)N[C@@H](CC(N)=O)C(=O)N[C@@H](Cc1c[nH]c2ccccc12)C(=O)N[C@@H](CC(C)C)C(=O)N[C@H](C(=O)N[C@@H](C)C(=O)NCC(=O)NCC(=O)N1CCC[C@H]1C(=O)N[C@@H](CO)C(=O)N[C@@H](CO)C(=O)NCC(=O)N[C@@H](C)C(=O)N1CCC[C@H]1C(=O)N1CCC[C@H]1C(=O)N1CCC[C@H]1C(=O)N[C@@H](CO)C(N)=O)[C@@H](C)CC)[C@@H](C)CC)[C@@H](C)CC)C(=O)O
Q: B1 was tested. Which “Activity against human GLP-1R (EC50 nM); cAMP HTRF, CHO-K1/GLP-1R/CRE-luc cells” value (“Activity against human GLP-1R (EC50 nM)” below) [1] did it give?
A: 0.015 nM

Q: What about the “Activity against human GIPR (EC50 nM); cAMP HTRF, CHO-K1 cells overexpressing hGIP receptor” value (“Activity against human GIPR (EC50 nM)” for short) [2] of the same binder?
A: 0.23 nM

B2: compound 14# (peptide)
peptide: Y[Aib]EGTFTSDYSIYK([AEEA-AEEA-γGlu-Arachidoyl])EKIAAQEFINWLIAGGPSSGAPPPS-NH2
modifications: N-terminus assumed
SMILES: CCCCCCCCCCCCCCCCCCCC(=O)N[C@@H](CCC(=O)NCCOCCOCC(=O)NCCOCCOCC(=O)NCCCC[C@H](NC(=O)[C@H](Cc1ccc(O)cc1)NC(=O)[C@@H](NC(=O)[C@H](CO)NC(=O)[C@H](Cc1ccc(O)cc1)NC(=O)[C@H](CC(=O)O)NC(=O)[C@H](CO)NC(=O)[C@@H](NC(=O)[C@H](Cc1ccccc1)NC(=O)[C@@H](NC(=O)CNC(=O)[C@H](CCC(=O)O)NC(=O)C(C)(C)NC(=O)[C@@H](N)Cc1ccc(O)cc1)[C@@H](C)O)[C@@H](C)O)[C@@H](C)CC)C(=O)N[C@@H](CCC(=O)O)C(=O)N[C@@H](CCCCN)C(=O)N[C@H](C(=O)N[C@@H](C)C(=O)N[C@@H](C)C(=O)N[C@@H](CCC(N)=O)C(=O)N[C@@H](CCC(=O)O)C(=O)N[C@@H](Cc1ccccc1)C(=O)N[C@H](C(=O)N[C@@H](CC(N)=O)C(=O)N[C@@H](Cc1c[nH]c2ccccc12)C(=O)N[C@@H](CC(C)C)C(=O)N[C@H](C(=O)N[C@@H](C)C(=O)NCC(=O)NCC(=O)N1CCC[C@H]1C(=O)N[C@@H](CO)C(=O)N[C@@H](CO)C(=O)NCC(=O)N[C@@H](C)C(=O)N1CCC[C@H]1C(=O)N1CCC[C@H]1C(=O)N1CCC[C@H]1C(=O)N[C@@H](CO)C(N)=O)[C@@H](C)CC)[C@@H](C)CC)[C@@H](C)CC)C(=O)O
Q: With B2 as the binder, how does the “Activity against human GLP-1R (EC50 nM)” value [1] read?
A: 0.013 nM

Q: And the “Activity against human GIPR (EC50 nM)” value [2]?
A: 0.13 nM

B3: compound 13# (peptide)
peptide: Y[Aib]EGTFTSDYSIYK([AEEA-AEEA-γGlu-Arachidoyl])ERIAAQEFVNWLIAGGPSSGAPPPS-NH2
modifications: N-terminus assumed
SMILES: CCCCCCCCCCCCCCCCCCCC(=O)N[C@@H](CCC(=O)NCCOCCOCC(=O)NCCOCCOCC(=O)NCCCC[C@H](NC(=O)[C@H](Cc1ccc(O)cc1)NC(=O)[C@@H](NC(=O)[C@H](CO)NC(=O)[C@H](Cc1ccc(O)cc1)NC(=O)[C@H](CC(=O)O)NC(=O)[C@H](CO)NC(=O)[C@@H](NC(=O)[C@H](Cc1ccccc1)NC(=O)[C@@H](NC(=O)CNC(=O)[C@H](CCC(=O)O)NC(=O)C(C)(C)NC(=O)[C@@H](N)Cc1ccc(O)cc1)[C@@H](C)O)[C@@H](C)O)[C@@H](C)CC)C(=O)N[C@@H](CCC(=O)O)C(=O)N[C@@H](CCCNC(=N)N)C(=O)N[C@H](C(=O)N[C@@H](C)C(=O)N[C@@H](C)C(=O)N[C@@H](CCC(N)=O)C(=O)N[C@@H](CCC(=O)O)C(=O)N[C@@H](Cc1ccccc1)C(=O)N[C@H](C(=O)N[C@@H](CC(N)=O)C(=O)N[C@@H](Cc1c[nH]c2ccccc12)C(=O)N[C@@H](CC(C)C)C(=O)N[C@H](C(=O)N[C@@H](C)C(=O)NCC(=O)NCC(=O)N1CCC[C@H]1C(=O)N[C@@H](CO)C(=O)N[C@@H](CO)C(=O)NCC(=O)N[C@@H](C)C(=O)N1CCC[C@H]1C(=O)N1CCC[C@H]1C(=O)N1CCC[C@H]1C(=O)N[C@@H](CO)C(N)=O)[C@@H](C)CC)C(C)C)[C@@H](C)CC)C(=O)O
Q: How did the “Activity against human GLP-1R (EC50 nM)” value [1] turn out when B3 was run?
A: 0.017 nM

Q: And the “Activity against human GIPR (EC50 nM)” value [2]?
A: 0.13 nM

Q: Which “Activity against human GLP-1R (EC50 nM)” value [1] does the source give for Y[Aib]EGTFTSDYSIYLEK([AEEA-AEEA-γGlu-Arachidoyl])IAAQEFVNWLIAGGPSSGAPPPS-NH2 [compound 9#] here?
A: 0.049 nM

Q: What about the “Activity against human GIPR (EC50 nM)” value [2] of the same binder?
A: 0.04 nM

B4: compound 10# (peptide)
peptide: Y[Aib]EGTFTSDYSIYLEK([AEEA-AEEA-γGlu-Arachidoyl])IAAQEFINWLIAGGPSSGAPPPS-NH2
modifications: N-terminus assumed
SMILES: CCCCCCCCCCCCCCCCCCCC(=O)N[C@@H](CCC(=O)NCCOCCOCC(=O)NCCOCCOCC(=O)NCCCC[C@H](NC(=O)[C@H](CCC(=O)O)NC(=O)[C@H](CC(C)C)NC(=O)[C@H](Cc1ccc(O)cc1)NC(=O)[C@@H](NC(=O)[C@H](CO)NC(=O)[C@H](Cc1ccc(O)cc1)NC(=O)[C@H](CC(=O)O)NC(=O)[C@H](CO)NC(=O)[C@@H](NC(=O)[C@H](Cc1ccccc1)NC(=O)[C@@H](NC(=O)CNC(=O)[C@H](CCC(=O)O)NC(=O)C(C)(C)NC(=O)[C@@H](N)Cc1ccc(O)cc1)[C@@H](C)O)[C@@H](C)O)[C@@H](C)CC)C(=O)N[C@H](C(=O)N[C@@H](C)C(=O)N[C@@H](C)C(=O)N[C@@H](CCC(N)=O)C(=O)N[C@@H](CCC(=O)O)C(=O)N[C@@H](Cc1ccccc1)C(=O)N[C@H](C(=O)N[C@@H](CC(N)=O)C(=O)N[C@@H](Cc1c[nH]c2ccccc12)C(=O)N[C@@H](CC(C)C)C(=O)N[C@H](C(=O)N[C@@H](C)C(=O)NCC(=O)NCC(=O)N1CCC[C@H]1C(=O)N[C@@H](CO)C(=O)N[C@@H](CO)C(=O)NCC(=O)N[C@@H](C)C(=O)N1CCC[C@H]1C(=O)N1CCC[C@H]1C(=O)N1CCC[C@H]1C(=O)N[C@@H](CO)C(N)=O)[C@@H](C)CC)[C@@H](C)CC)[C@@H](C)CC)C(=O)O
Q: B4 was tested. Which “Activity against human GLP-1R (EC50 nM)” value [1] did it give?
A: 0.065 nM

Q: And the “Activity against human GIPR (EC50 nM)” value [2]?
A: 0.056 nM

B5: compound 12# (peptide)
peptide: Y[Aib]EGTFTSDYSIYK([AEEA-AEEA-γGlu-Arachidoyl])EKIAAQEFVNWLIAGGPSSGAPPPS-NH2
modifications: N-terminus assumed
SMILES: CCCCCCCCCCCCCCCCCCCC(=O)N[C@@H](CCC(=O)NCCOCCOCC(=O)NCCOCCOCC(=O)NCCCC[C@H](NC(=O)[C@H](Cc1ccc(O)cc1)NC(=O)[C@@H](NC(=O)[C@H](CO)NC(=O)[C@H](Cc1ccc(O)cc1)NC(=O)[C@H](CC(=O)O)NC(=O)[C@H](CO)NC(=O)[C@@H](NC(=O)[C@H](Cc1ccccc1)NC(=O)[C@@H](NC(=O)CNC(=O)[C@H](CCC(=O)O)NC(=O)C(C)(C)NC(=O)[C@@H](N)Cc1ccc(O)cc1)[C@@H](C)O)[C@@H](C)O)[C@@H](C)CC)C(=O)N[C@@H](CCC(=O)O)C(=O)N[C@@H](CCCCN)C(=O)N[C@H](C(=O)N[C@@H](C)C(=O)N[C@@H](C)C(=O)N[C@@H](CCC(N)=O)C(=O)N[C@@H](CCC(=O)O)C(=O)N[C@@H](Cc1ccccc1)C(=O)N[C@H](C(=O)N[C@@H](CC(N)=O)C(=O)N[C@@H](Cc1c[nH]c2ccccc12)C(=O)N[C@@H](CC(C)C)C(=O)N[C@H](C(=O)N[C@@H](C)C(=O)NCC(=O)NCC(=O)N1CCC[C@H]1C(=O)N[C@@H](CO)C(=O)N[C@@H](CO)C(=O)NCC(=O)N[C@@H](C)C(=O)N1CCC[C@H]1C(=O)N1CCC[C@H]1C(=O)N1CCC[C@H]1C(=O)N[C@@H](CO)C(N)=O)[C@@H](C)CC)C(C)C)[C@@H](C)CC)C(=O)O
Q: What does the source list for B5?
A: Activity against human GLP-1R (EC50 nM); cAMP HTRF, CHO-K1/GLP-1R/CRE-luc cells [1]: 0.03 nM; Activity against human GIPR (EC50 nM); cAMP HTRF, CHO-K1 cells overexpressing hGIP receptor [2]: 0.17 nM
